Ends that are not written are not given here. * marks the point of attachment. Palmitoyl = CCCCCCCCCCCCCCCC(=O)*; Lauroyl = CCCCCCCCCCCC(=O)*
T1: human GIP receptor (human, UniProt P48546 22-466)
T1 construct: whole, on cells; also called hGIPR
T1 sequence (looked up): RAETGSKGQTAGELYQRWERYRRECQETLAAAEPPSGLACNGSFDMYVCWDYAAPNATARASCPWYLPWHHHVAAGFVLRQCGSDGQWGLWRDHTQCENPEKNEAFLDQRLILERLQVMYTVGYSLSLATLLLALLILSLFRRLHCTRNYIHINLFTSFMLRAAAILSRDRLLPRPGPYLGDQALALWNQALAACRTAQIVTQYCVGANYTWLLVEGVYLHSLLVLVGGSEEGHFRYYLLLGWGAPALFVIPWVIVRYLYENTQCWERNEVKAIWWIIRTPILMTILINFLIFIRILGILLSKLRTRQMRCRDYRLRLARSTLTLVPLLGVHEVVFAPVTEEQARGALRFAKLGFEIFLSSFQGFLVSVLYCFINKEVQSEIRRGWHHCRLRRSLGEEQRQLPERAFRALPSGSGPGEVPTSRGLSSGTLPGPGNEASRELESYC

B1: AT145 [hGIP(5-30)NH2[H18K]-C16/18] (peptide)
peptide: TFISDYSIAMDKIK(Palmitoyl)QQDFVNWLLAQK-NH2
modifications: N-terminus assumed
SMILES: CCCCCCCCCCCCCCCC(=O)NCCCC[C@H](NC(=O)[C@@H](NC(=O)[C@H](CCCCN)NC(=O)[C@H](CC(=O)O)NC(=O)[C@H](CCSC)NC(=O)[C@H](C)NC(=O)[C@@H](NC(=O)[C@H](CO)NC(=O)[C@H](Cc1ccc(O)cc1)NC(=O)[C@H](CC(=O)O)NC(=O)[C@H](CO)NC(=O)[C@@H](NC(=O)[C@H](Cc1ccccc1)NC(=O)[C@@H](N)[C@@H](C)O)[C@@H](C)CC)[C@@H](C)CC)[C@@H](C)CC)C(=O)N[C@@H](CCC(N)=O)C(=O)N[C@@H](CCC(N)=O)C(=O)N[C@@H](CC(=O)O)C(=O)N[C@@H](Cc1ccccc1)C(=O)N[C@H](C(=O)N[C@@H](CC(N)=O)C(=O)N[C@@H](Cc1c[nH]c2ccccc12)C(=O)N[C@@H](CC(C)C)C(=O)N[C@@H](CC(C)C)C(=O)N[C@@H](C)C(=O)N[C@@H](CCC(N)=O)C(=O)N[C@@H](CCCCN)C(N)=O)C(C)C
B2: AT107 [hGIP(3-30)NH2[T5W; D15E; H18A]-C16/16] (peptide)
peptide: EGWFISDYSIAMEK(Palmitoyl)IAQQDFVNWLLAQK-NH2
modifications: N-terminus assumed
SMILES: CCCCCCCCCCCCCCCC(=O)NCCCC[C@H](NC(=O)[C@H](CCC(=O)O)NC(=O)[C@H](CCSC)NC(=O)[C@H](C)NC(=O)[C@@H](NC(=O)[C@H](CO)NC(=O)[C@H](Cc1ccc(O)cc1)NC(=O)[C@H](CC(=O)O)NC(=O)[C@H](CO)NC(=O)[C@@H](NC(=O)[C@H](Cc1ccccc1)NC(=O)[C@H](Cc1c[nH]c2ccccc12)NC(=O)CNC(=O)[C@@H](N)CCC(=O)O)[C@@H](C)CC)[C@@H](C)CC)C(=O)N[C@H](C(=O)N[C@@H](C)C(=O)N[C@@H](CCC(N)=O)C(=O)N[C@@H](CCC(N)=O)C(=O)N[C@@H](CC(=O)O)C(=O)N[C@@H](Cc1ccccc1)C(=O)N[C@H](C(=O)N[C@@H](CC(N)=O)C(=O)N[C@@H](Cc1c[nH]c2ccccc12)C(=O)N[C@@H](CC(C)C)C(=O)N[C@@H](CC(C)C)C(=O)N[C@@H](C)C(=O)N[C@@H](CCC(N)=O)C(=O)N[C@@H](CCCCN)C(N)=O)C(C)C)[C@@H](C)CC
B3: AT131 [hGIP(3-30)NH2[D15E; H18A]-C16/16] (peptide)
peptide: EGTFISDYSIAMEK(Palmitoyl)IAQQDFVNWLLAQK-NH2
modifications: N-terminus assumed
SMILES: CCCCCCCCCCCCCCCC(=O)NCCCC[C@H](NC(=O)[C@H](CCC(=O)O)NC(=O)[C@H](CCSC)NC(=O)[C@H](C)NC(=O)[C@@H](NC(=O)[C@H](CO)NC(=O)[C@H](Cc1ccc(O)cc1)NC(=O)[C@H](CC(=O)O)NC(=O)[C@H](CO)NC(=O)[C@@H](NC(=O)[C@H](Cc1ccccc1)NC(=O)[C@@H](NC(=O)CNC(=O)[C@@H](N)CCC(=O)O)[C@@H](C)O)[C@@H](C)CC)[C@@H](C)CC)C(=O)N[C@H](C(=O)N[C@@H](C)C(=O)N[C@@H](CCC(N)=O)C(=O)N[C@@H](CCC(N)=O)C(=O)N[C@@H](CC(=O)O)C(=O)N[C@@H](Cc1ccccc1)C(=O)N[C@H](C(=O)N[C@@H](CC(N)=O)C(=O)N[C@@H](Cc1c[nH]c2ccccc12)C(=O)N[C@@H](CC(C)C)C(=O)N[C@@H](CC(C)C)C(=O)N[C@@H](C)C(=O)N[C@@H](CCC(N)=O)C(=O)N[C@@H](CCCCN)C(N)=O)C(C)C)[C@@H](C)CC
B4: AT143 [hGIP(3-30)NH2[M14L; H18K]-C16/18] (peptide)
peptide: EGTFISDYSIALDKIK(Palmitoyl)QQDFVNWLLAQK-NH2
modifications: N-terminus assumed
SMILES: CCCCCCCCCCCCCCCC(=O)NCCCC[C@H](NC(=O)[C@@H](NC(=O)[C@H](CCCCN)NC(=O)[C@H](CC(=O)O)NC(=O)[C@H](CC(C)C)NC(=O)[C@H](C)NC(=O)[C@@H](NC(=O)[C@H](CO)NC(=O)[C@H](Cc1ccc(O)cc1)NC(=O)[C@H](CC(=O)O)NC(=O)[C@H](CO)NC(=O)[C@@H](NC(=O)[C@H](Cc1ccccc1)NC(=O)[C@@H](NC(=O)CNC(=O)[C@@H](N)CCC(=O)O)[C@@H](C)O)[C@@H](C)CC)[C@@H](C)CC)[C@@H](C)CC)C(=O)N[C@@H](CCC(N)=O)C(=O)N[C@@H](CCC(N)=O)C(=O)N[C@@H](CC(=O)O)C(=O)N[C@@H](Cc1ccccc1)C(=O)N[C@H](C(=O)N[C@@H](CC(N)=O)C(=O)N[C@@H](Cc1c[nH]c2ccccc12)C(=O)N[C@@H](CC(C)C)C(=O)N[C@@H](CC(C)C)C(=O)N[C@@H](C)C(=O)N[C@@H](CCC(N)=O)C(=O)N[C@@H](CCCCN)C(N)=O)C(C)C
B5: AT144 [hGIP(3-30)NH2[K16R; H18K; K30R]-C16/18] (peptide)
peptide: EGTFISDYSIAMDRIK(Palmitoyl)QQDFVNWLLAQR-NH2
modifications: N-terminus assumed
SMILES: CCCCCCCCCCCCCCCC(=O)NCCCC[C@H](NC(=O)[C@@H](NC(=O)[C@H](CCCNC(=N)N)NC(=O)[C@H](CC(=O)O)NC(=O)[C@H](CCSC)NC(=O)[C@H](C)NC(=O)[C@@H](NC(=O)[C@H](CO)NC(=O)[C@H](Cc1ccc(O)cc1)NC(=O)[C@H](CC(=O)O)NC(=O)[C@H](CO)NC(=O)[C@@H](NC(=O)[C@H](Cc1ccccc1)NC(=O)[C@@H](NC(=O)CNC(=O)[C@@H](N)CCC(=O)O)[C@@H](C)O)[C@@H](C)CC)[C@@H](C)CC)[C@@H](C)CC)C(=O)N[C@@H](CCC(N)=O)C(=O)N[C@@H](CCC(N)=O)C(=O)N[C@@H](CC(=O)O)C(=O)N[C@@H](Cc1ccccc1)C(=O)N[C@H](C(=O)N[C@@H](CC(N)=O)C(=O)N[C@@H](Cc1c[nH]c2ccccc12)C(=O)N[C@@H](CC(C)C)C(=O)N[C@@H](CC(C)C)C(=O)N[C@@H](C)C(=O)N[C@@H](CCC(N)=O)C(=O)N[C@@H](CCCNC(=N)N)C(N)=O)C(C)C
B6: AT153 [hGIP(3-30)NH2[H18R; K30R]-C12/16] (peptide)
peptide: EGTFISDYSIAMDK(Lauroyl)IRQQDFVNWLLAQR-NH2
modifications: N-terminus assumed
SMILES: CCCCCCCCCCCC(=O)NCCCC[C@H](NC(=O)[C@H](CC(=O)O)NC(=O)[C@H](CCSC)NC(=O)[C@H](C)NC(=O)[C@@H](NC(=O)[C@H](CO)NC(=O)[C@H](Cc1ccc(O)cc1)NC(=O)[C@H](CC(=O)O)NC(=O)[C@H](CO)NC(=O)[C@@H](NC(=O)[C@H](Cc1ccccc1)NC(=O)[C@@H](NC(=O)CNC(=O)[C@@H](N)CCC(=O)O)[C@@H](C)O)[C@@H](C)CC)[C@@H](C)CC)C(=O)N[C@H](C(=O)N[C@@H](CCCNC(=N)N)C(=O)N[C@@H](CCC(N)=O)C(=O)N[C@@H](CCC(N)=O)C(=O)N[C@@H](CC(=O)O)C(=O)N[C@@H](Cc1ccccc1)C(=O)N[C@H](C(=O)N[C@@H](CC(N)=O)C(=O)N[C@@H](Cc1c[nH]c2ccccc12)C(=O)N[C@@H](CC(C)C)C(=O)N[C@@H](CC(C)C)C(=O)N[C@@H](C)C(=O)N[C@@H](CCC(N)=O)C(=O)N[C@@H](CCCNC(=N)N)C(N)=O)C(C)C)[C@@H](C)CC

Molecular target: T1, human GIP receptor
Test: 125I-hGIP competition binding, COS-7 cells expressing hGIPR;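 also: nonspecific binding taken as radioligand bound by untransfected cells, binding buffer with or without 2% HSA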
Description: After incubation, the cells were washed twice in ice-cold binding buffer (+/−2% HSA) and lysed using 200 mM NaOH with 1% SDS for 30 min. Nonspecific binding was determined as the binding of radioactive ligand to untransfected cells.

| Binder | IC50 | log IC50 |
| --- | --- | --- |
| B1 | 155 nM | -6.8 log M |
| Lauroyl-EGTFISDYSIAMDKIHQQDFVNWLLAQK-NH2 [AT101 [hGIP(3-30)NH2-C12/3]] | 9.9 nM | -8 log M |
| B2 | 5220 nM | -5.3 log M |
| EGTFISDYSIAMEKIAQQDFVNWLLAQK(C12 fatty acyl)-NH2 [AT130 [hGIP(3-30)NH2[D15E; H18A]-C12/30]] | 1210 nM | -5.9 log M |
| B3 | 6510 nM | -5.2 log M |
| B4 | 80 nM |  |
| B5 | 297 nM | -6.53 log M |
| B6 | 316 nM | -7 log M |
